For this assay, the target named is biotin-labeled soluble FcRn. In words: FcRn ELISA pH 6.0. In general terms: In an ELISA, binding on a coated surface is turned into a signal by an enzyme label.

The source of these data is patent publication US20070224188A1.

“anti-CD20 IgG1 247L251F330R332E (antibody)” registered a FcRn6.0 (% of wild type) of 50.

For anti-CD20 IgG1 247L251F376I (antibody), the FcRn6.0 (% of wild type) came to 61.

The substance anti-CD20 IgG1 247L332E376I (antibody) yielded a FcRn6.0 (% of wild type) of 74.

In turn, anti-CD20 IgG1 247L332E (antibody) registered a FcRn6.0 (% of wild type) of 78.

anti-CD20 IgG1 251F332E376I (antibody) returned a FcRn6.0 (% of wild type) of 68.

In turn, anti-CD20 IgG1 251F332E (antibody) yielded a FcRn6.0 (% of wild type) of 72.

Regarding anti-CD20 IgG1 251F376I (antibody), the FcRn6.0 (% of wild type) turned out to be 66.

As for anti-CD20 IgG1 256P311I (antibody), the FcRn6.0 (% of wild type) was 268.

“anti-CD20 IgG1 256P314Y332E440Y (antibody)” came in with a FcRn6.0 (% of wild type) of 86.

anti-CD20 IgG1 256P314Y440Y (antibody) displayed a FcRn6.0 (% of wild type) of 79.

On to anti-CD20 IgG1 256P332E440Y (antibody), for which the FcRn6.0 (% of wild type) amounted to 117.

The substance anti-CD20 IgG1 256P332E (antibody) gave a FcRn6.0 (% of wild type) of 121.

anti-CD20 IgG1 256P430Q (antibody) had a FcRn6.0 (% of wild type) of 150.

As for anti-CD20 IgG1 256P434H (antibody), the FcRn6.0 (% of wild type) was determined as 342.

On to anti-CD20 IgG1 256P440Y (antibody), for which the FcRn6.0 (% of wild type) amounted to 122.

For the substance anti-CD20 IgG1 257I311I434H (antibody), the FcRn6.0 (% of wild type) was 553.

Regarding anti-CD20 IgG1 257I311I (antibody), the FcRn6.0 (% of wild type) came out at 409.

anti-CD20 IgG1 257I430Q (antibody): the FcRn6.0 (% of wild type) was determined as 304.

Regarding anti-CD20 IgG1 257I434H (antibody), the FcRn6.0 (% of wild type) stood at 472.

The substance anti-CD20 IgG1 258D272R (antibody) gave a FcRn6.0 (% of wild type) of 383.

The substance anti-CD20 IgG1 258D283R (antibody) showed a FcRn6.0 (% of wild type) of 411.

Substance anti-CD20 IgG1 258D286F (antibody) had a FcRn6.0 (% of wild type) of 445.

Take anti-CD20 IgG1 258D307E (antibody): the FcRn6.0 (% of wild type) came out at 237.

anti-CD20 IgG1 258D311I (antibody) showed a FcRn6.0 (% of wild type) of 522.

In turn, anti-CD20 IgG1 258D376V (antibody) displayed a FcRn6.0 (% of wild type) of 415.

anti-CD20 IgG1 268D332E (antibody) had a FcRn6.0 (% of wild type) of 92.

Consider anti-CD20 IgG1 268E332E (antibody), for which the FcRn6.0 (% of wild type) came to 88.

anti-CD20 IgG1 272R279L (antibody) registered a FcRn6.0 (% of wild type) of 156.

The substance anti-CD20 IgG1 272R283R (antibody) returned a FcRn6.0 (% of wild type) of 439.

anti-CD20 IgG1 272R286F (antibody): the FcRn6.0 (% of wild type) came out at 338.

On to anti-CD20 IgG1 272R311I (antibody), for which the FcRn6.0 (% of wild type) turned out to be 396.

For the substance anti-CD20 IgG1 272R376V (antibody), the FcRn6.0 (% of wild type) amounted to 369.

As for anti-CD20 IgG1 279D307E (antibody), the FcRn6.0 (% of wild type) was determined as 522.

On to anti-CD20 IgG1 283R307E (antibody), for which the FcRn6.0 (% of wild type) turned out to be 400.

The substance anti-CD20 IgG1 283R311I (antibody) displayed a FcRn6.0 (% of wild type) of 531.

Substance anti-CD20 IgG1 283R376V (antibody) displayed a FcRn6.0 (% of wild type) of 475.

In turn, anti-CD20 IgG1 286F307E (antibody) yielded a FcRn6.0 (% of wild type) of 431.

Substance anti-CD20 IgG1 286F311I (antibody) returned a FcRn6.0 (% of wild type) of 412.

Substance anti-CD20 IgG1 286F376V (antibody) gave a FcRn6.0 (% of wild type) of 349.

For the substance anti-CD20 IgG1 307E376V (antibody), the FcRn6.0 (% of wild type) is 480.

As for anti-CD20 IgG1 311I376V (antibody), the FcRn6.0 (% of wild type) stood at 414.

anti-CD20 IgG1 314Y332E440Y (antibody) yielded a FcRn6.0 (% of wild type) of 82.

In turn, anti-CD20 IgG1 314Y440Y (antibody) showed a FcRn6.0 (% of wild type) of 78.

In the case of anti-CD20 IgG1 330K332D (antibody), the FcRn6.0 (% of wild type) was 88.

As for anti-CD20 IgG1 330K332E (antibody), the FcRn6.0 (% of wild type) was 94.

anti-CD20 IgG1 330R332D (antibody) showed a FcRn6.0 (% of wild type) of 88.

For the substance anti-CD20 IgG1 330R332E (antibody), the FcRn6.0 (% of wild type) came to 94.

anti-CD20 IgG1 332E376I (antibody) showed a FcRn6.0 (% of wild type) of 102.

As for anti-CD20 IgG1 332E376V (antibody), the FcRn6.0 (% of wild type) turned out to be 132.

Take anti-CD20 IgG1 332E440Y (antibody): the FcRn6.0 (% of wild type) stood at 94.

The substance anti-CD20 IgG1 343R345D (antibody) displayed a FcRn6.0 (% of wild type) of 143.

Take anti-CD20 IgG1 376V430Q (antibody): the FcRn6.0 (% of wild type) came out at 212.

Regarding anti-CD20 IgG1 376V430R (antibody), the FcRn6.0 (% of wild type) was 188.

Consider anti-CD20 IgG1 376V434H (antibody), for which the FcRn6.0 (% of wild type) was found to be 382.

In the case of anti-CD20 IgG1 A327T (antibody), the FcRn pH6.0 (% of wild type) was determined as 54.

anti-CD20 IgG1 A330K (antibody): the FcRn pH6.0 (% of wild type) was determined as 108.

As to anti-CD20 IgG1 A330R (antibody), the FcRn pH6.0 (% of wild type) was determined as 121.

In turn, anti-CD20 IgG1 A339D (antibody) yielded a FcRn pH6.0 (% of wild type) of 80.

In the case of anti-CD20 IgG1 A339E (antibody), the FcRn pH6.0 (% of wild type) stood at 75.

In turn, anti-CD20 IgG1 A339F (antibody) came in with a FcRn pH6.0 (% of wild type) of 120.

The substance anti-CD20 IgG1 A339G (antibody) yielded a FcRn pH6.0 (% of wild type) of 67.

anti-CD20 IgG1 A339H (antibody) showed a FcRn pH6.0 (% of wild type) of 107.

Take anti-CD20 IgG1 A339I (antibody): the FcRn pH6.0 (% of wild type) was found to be 80.

anti-CD20 IgG1 A339K (antibody) had a FcRn pH6.0 (% of wild type) of 83.

Regarding anti-CD20 IgG1 A339L (antibody), the FcRn pH6.0 (% of wild type) stood at 83.

In turn, anti-CD20 IgG1 A339M (antibody) yielded a FcRn pH6.0 (% of wild type) of 111.

Consider anti-CD20 IgG1 A339N (antibody), for which the FcRn pH6.0 (% of wild type) came out at 146.

As for anti-CD20 IgG1 A339Q (antibody), the FcRn pH6.0 (% of wild type) stood at 102.

anti-CD20 IgG1 A339R (antibody) returned a FcRn pH6.0 (% of wild type) of 82.

anti-CD20 IgG1 A339S (antibody) came in with a FcRn pH6.0 (% of wild type) of 95.

For the substance anti-CD20 IgG1 A339T (antibody), the FcRn pH6.0 (% of wild type) is 138.

Turning to anti-CD20 IgG1 A339W (antibody), the FcRn pH6.0 (% of wild type) was 156.

anti-CD20 IgG1 A339Y (antibody) gave a FcRn pH6.0 (% of wild type) of 92.

anti-CD20 IgG1 A378D (antibody) showed a FcRn pH6.0 (% of wild type) of 163.

Regarding anti-CD20 IgG1 A378N (antibody), the FcRn pH6.0 (% of wild type) amounted to 180.

In the case of anti-CD20 IgG1 A431H (antibody), the FcRn pH6.0 (% of wild type) is 151.

Take anti-CD20 IgG1 A431K (antibody): the FcRn pH6.0 (% of wild type) was 176.

anti-CD20 IgG1 A431P (antibody) showed a FcRn pH6.0 (% of wild type) of 29.

anti-CD20 IgG1 D249E (antibody) had a FcRn pH6.0 (% of wild type) of 78.

With anti-CD20 IgG1 D249L (antibody), the FcRn pH6.0 (% of wild type) was determined as 15.

As to anti-CD20 IgG1 D249M (antibody), the FcRn pH6.0 (% of wild type) was 50.

Take anti-CD20 IgG1 D249N (antibody): the FcRn pH6.0 (% of wild type) was 112.

In turn, anti-CD20 IgG1 D249P (antibody) registered a FcRn pH6.0 (% of wild type) of 138.

anti-CD20 IgG1 D249Y (antibody) registered a FcRn pH6.0 (% of wild type) of 41.

The substance anti-CD20 IgG1 D265H (antibody) yielded a FcRn pH6.0 (% of wild type) of 79.

Substance anti-CD20 IgG1 D265K (antibody) gave a FcRn pH6.0 (% of wild type) of 107.

Take anti-CD20 IgG1 D265S (antibody): the FcRn pH6.0 (% of wild type) was 66.

In turn, anti-CD20 IgG1 D265Y (antibody) gave a FcRn pH6.0 (% of wild type) of 33.

As for anti-CD20 IgG1 D270A (antibody), the FcRn pH6.0 (% of wild type) amounted to 87.

Take anti-CD20 IgG1 D270G (antibody): the FcRn pH6.0 (% of wild type) turned out to be 108.

Take anti-CD20 IgG1 D270K (antibody): the FcRn pH6.0 (% of wild type) worked out at 122.

Regarding anti-CD20 IgG1 D270M (antibody), the FcRn pH6.0 (% of wild type) came out at 81.

anti-CD20 IgG1 D270N (antibody) had a FcRn pH6.0 (% of wild type) of 94.

Turning to anti-CD20 IgG1 D280A (antibody), the FcRn pH6.0 (% of wild type) was 55.

anti-CD20 IgG1 D280K (antibody) gave a FcRn pH6.0 (% of wild type) of 120.

As for anti-CD20 IgG1 D280T (antibody), the FcRn pH6.0 (% of wild type) worked out at 60.

In turn, anti-CD20 IgG1 D312P (antibody) returned a FcRn pH6.0 (% of wild type) of 546.

For the substance anti-CD20 IgG1 D376A (antibody), the FcRn pH6.0 (% of wild type) was found to be 155.

anti-CD20 IgG1 D376E (antibody) came in with a FcRn pH6.0 (% of wild type) of 82.

anti-CD20 IgG1 D376F (antibody): the FcRn pH6.0 (% of wild type) amounted to 116.

Substance anti-CD20 IgG1 D376G (antibody) showed a FcRn pH6.0 (% of wild type) of 135.

anti-CD20 IgG1 D376H (antibody) yielded a FcRn pH6.0 (% of wild type) of 81.

For the substance anti-CD20 IgG1 D376I (antibody), the FcRn pH6.0 (% of wild type) stood at 144.

anti-CD20 IgG1 D376L (antibody) returned a FcRn pH6.0 (% of wild type) of 78.

anti-CD20 IgG1 D376M (antibody): the FcRn pH6.0 (% of wild type) is 129.

For the substance anti-CD20 IgG1 D376N (antibody), the FcRn pH6.0 (% of wild type) was determined as 94.

On to anti-CD20 IgG1 D376P (antibody), for which the FcRn pH6.0 (% of wild type) worked out at 203.
